Reference: patent US20220251236A1 (Boehringer Ingelheim, published 2022)

T1: human DLL3 (endogenous, on SCLC cell lines NCI-H82 and SHP77 and in SCLC tissue) (human, UniProt Q9NYJ7 27-618)
T1 construct: whole, on cells; also called SCLC cell lines expressing DLL3
T1 sequence (looked up): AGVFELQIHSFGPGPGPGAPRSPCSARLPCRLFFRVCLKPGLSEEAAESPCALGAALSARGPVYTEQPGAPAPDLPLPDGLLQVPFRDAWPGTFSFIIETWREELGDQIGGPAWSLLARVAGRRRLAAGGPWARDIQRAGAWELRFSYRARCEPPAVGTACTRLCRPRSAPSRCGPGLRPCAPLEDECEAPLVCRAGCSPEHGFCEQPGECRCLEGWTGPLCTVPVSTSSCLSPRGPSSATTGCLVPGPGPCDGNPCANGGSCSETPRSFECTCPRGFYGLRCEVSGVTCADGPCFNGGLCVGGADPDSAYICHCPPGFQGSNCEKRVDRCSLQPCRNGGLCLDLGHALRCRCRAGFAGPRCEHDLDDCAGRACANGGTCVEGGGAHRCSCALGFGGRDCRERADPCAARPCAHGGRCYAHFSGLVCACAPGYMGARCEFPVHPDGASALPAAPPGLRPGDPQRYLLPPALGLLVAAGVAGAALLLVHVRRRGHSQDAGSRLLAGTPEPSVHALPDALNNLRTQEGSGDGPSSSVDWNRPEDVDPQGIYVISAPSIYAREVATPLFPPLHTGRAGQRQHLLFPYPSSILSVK

T2: EGF2+3
T2 construct: also called Hu DLL3 EGF2+3 on HEK293 cells
T2 membrane-anchored DLL3 subdomain construct: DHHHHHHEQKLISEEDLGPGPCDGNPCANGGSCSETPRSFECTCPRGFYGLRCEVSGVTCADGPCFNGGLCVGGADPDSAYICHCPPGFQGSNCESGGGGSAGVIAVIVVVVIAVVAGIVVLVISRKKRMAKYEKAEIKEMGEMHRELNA

T3: EGF3+4
T3 construct: also called Hu DLL3 EGF3+4 on HEK293 cells
T3 membrane-anchored DLL3 subdomain construct: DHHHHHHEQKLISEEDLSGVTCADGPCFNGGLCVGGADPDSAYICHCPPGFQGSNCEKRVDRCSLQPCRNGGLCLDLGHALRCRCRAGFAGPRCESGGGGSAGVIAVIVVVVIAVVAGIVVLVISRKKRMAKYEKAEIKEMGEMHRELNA

T4: EGF4+5
T4 construct: also called Hu DLL3 EGF4+5 on HEK293 cells
T4 membrane-anchored DLL3 subdomain construct: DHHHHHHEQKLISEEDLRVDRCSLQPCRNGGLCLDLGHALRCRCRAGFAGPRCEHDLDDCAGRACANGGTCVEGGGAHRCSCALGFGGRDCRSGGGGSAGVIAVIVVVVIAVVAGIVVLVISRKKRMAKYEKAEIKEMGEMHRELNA

T5: EGF5+6
T5 construct: also called Hu DLL3 EGF5+6 on HEK293 cells
T5 membrane-anchored DLL3 subdomain construct: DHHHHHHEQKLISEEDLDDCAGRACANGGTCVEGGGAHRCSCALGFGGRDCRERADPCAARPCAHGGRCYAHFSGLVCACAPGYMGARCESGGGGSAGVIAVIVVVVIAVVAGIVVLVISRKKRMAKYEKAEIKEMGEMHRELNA

T6: EGF6+MEMBRANE PROXIMAL PEPTIDE
T6 construct: also called Hu DLL3 EGF6+membrane proximal peptide on HEK293 cells
T6 membrane-anchored DLL3 subdomain construct: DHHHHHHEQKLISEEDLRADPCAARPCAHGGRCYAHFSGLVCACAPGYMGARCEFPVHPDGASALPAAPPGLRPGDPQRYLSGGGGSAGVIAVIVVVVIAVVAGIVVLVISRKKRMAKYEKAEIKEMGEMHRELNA

B1: DLL3#5/CD3#1 (bispecific antibody, human IgG1, kappa, lambda, L234A L235A)
chain 1: not shown
chain 2: EAVVTQEPSLTVSPGGTVTLTCRSSTGAVTTSNYANWVQEKPGQLPRGLIGGTNKRAPWVPARFSGSLLGGKAALTLSGAQPEDEAEYFCALWYSNLWVFGGGTKLTVLGQPKAAPSVTLFPPSSEELQANKATLVCLISDFYPGAVKVAWKADGSPVNTGVETTTPSKQSNNKYAASSYLSLTPEQWKSHRSYSCQVTHEGSTVEKTVAPAECSGGGGSEGKSSGSGSESKSTEGKSSGSGSESKSTGGGGSEVQLVESGGGLVQPGGSLKLSCAASGFTFNTYAMNWVRQAPGKGLEWVARIRSKYNNYATYYADSVKDRFTISRDDSKNTAYLQMNNLKTEDTAVYYCVRHGNFGNSYVSWFAYWGQGTLVTVSAASTKGPSVFPLAPSSKSTSGGTAALGCLVKDYFPEPVTVSWNSGALTSGVHTFPAVLQSSGLYSLSSVVTVPSSSLGTQTYICNVNHKPSNTKVDKRVEPKSCDKTHTCPPCPAPEAAGGPSVFLFPPKPKDTLMISRTPEVTCVVVDVSHEDPEVKFNWYVDGVEVHNAKTKPREEQYNSTYRVVSVLTVLHQDWLNGKEYKCKVSNKALPAPIEKTISKAKGQPREPQVYTLPPSREEMTKNQVSLSCAVKGFYPSDIAVEWESNGQPENNYKTTPPVLDSDGSFFLVSKLTVDKSRWQQGNVFSCSVMHEALHNRFTQKSLSLSPG
notes: Heterodimer of one DLL3 chain and one CD3 chain (scFab-Fc, knob-in-hole)
B2: DLL3#6/CD3#1 (bispecific antibody, human IgG1, kappa, lambda, L234A L235A)
chain 1: DIQLTQSPSFLSTSVGDRVTITCRASQDISNYFAWYQQKPGKAPKLLIYAASTLQSGVPSRFSGGGSGTEFTLTISSLQPEDFATYYCQQLNSYPYTFGQGTKLEIKRTVAAPSVFIFPPSDEQLKSGTASVVCLLNNFYPREAKVQWKVDNALQSGNSQESVTEQDSKDSTYSLSSTLTLSKADYEKHKVYACEVTHQGLSSPVTKSFNRGECGGGGSEGKSSGSGSESKSTEGKSSGSGSESKSTGGGGSQVQLQESGPGLVKPSETLSLTCTVSGGSISSYFWSWIRQPAGKGLEWIGRIYTSGSTNYNPSLNSRLTMSVDTSKNQFSLKLSSVTAADTAVYYCARRGDWGGFDIWGQGTVVTVSSASTKGPSVFPLAPSSKSTSGGTAALGCLVKDYFPEPVTVSWNSGALTSGVHTFPAVLQSSGLYSLSSVVTVPSSSLGTQTYICNVNHKPSNTKVDKRVEPKSCDKTHTCPPCPAPEAAGGPSVFLFPPKPKDTLMISRTPEVTCVVVDVSHEDPEVKFNWYVDGVEVHNAKTKPREEQYNSTYRVVSVLTVLHQDWLNGKEYKCKVSNKALPAPIEKTISKAKGQPREPQVYTLPPSREEMTKNQVSLWCLVKGFYPSDIAVEWESNGQPENNYKTTPPVLDSDGSFFLYSKLTVDKSRWQQGNVFSCSVMHEALHNHYTQKSLSLSPG
chain 2: B1 chain 2
notes: as for B1
B3: DLL3#4/CD3#1 (bispecific antibody, human IgG1, kappa, lambda, L234A L235A)
chain 1: not shown
chain 2: B1 chain 2
notes: as for B1

Columns and labels:
[1] = target: T7, trypsin inhibitor from glycine max soybean (Glycine max (soybean)); assay: SPR (Biacore T200), trypsin inhibitor on CM5 chip, sample at 1 µM
T7 construct: also called Tryp
T7 sequence (P01070 25-205): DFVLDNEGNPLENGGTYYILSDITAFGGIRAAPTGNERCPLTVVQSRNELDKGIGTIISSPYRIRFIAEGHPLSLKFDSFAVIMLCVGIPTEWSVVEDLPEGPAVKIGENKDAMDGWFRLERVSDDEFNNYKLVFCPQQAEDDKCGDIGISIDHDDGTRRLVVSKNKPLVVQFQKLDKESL
From the text: To prepare the surface for the non-specific binding experiment, chicken egg white lysozyme and trypsin inhibitor from glycine max soybean were coupled manually to a series S CM5 chip with the surface density of 3000-5000 RU using the amine coupling kit according to the manufacture instructions.

[2] = target: T8, Human CD3 E+G HuFc-6xHis (human); assay: SPR (ProteOn XPR36), HuCD3E_HuCD3G-Fc amine-coupled, bispecific as analyte, Example 4B
T8 construct: also called hu CD3εγ-Fc
T8 sequence (chain, as listed by the source limits assumed): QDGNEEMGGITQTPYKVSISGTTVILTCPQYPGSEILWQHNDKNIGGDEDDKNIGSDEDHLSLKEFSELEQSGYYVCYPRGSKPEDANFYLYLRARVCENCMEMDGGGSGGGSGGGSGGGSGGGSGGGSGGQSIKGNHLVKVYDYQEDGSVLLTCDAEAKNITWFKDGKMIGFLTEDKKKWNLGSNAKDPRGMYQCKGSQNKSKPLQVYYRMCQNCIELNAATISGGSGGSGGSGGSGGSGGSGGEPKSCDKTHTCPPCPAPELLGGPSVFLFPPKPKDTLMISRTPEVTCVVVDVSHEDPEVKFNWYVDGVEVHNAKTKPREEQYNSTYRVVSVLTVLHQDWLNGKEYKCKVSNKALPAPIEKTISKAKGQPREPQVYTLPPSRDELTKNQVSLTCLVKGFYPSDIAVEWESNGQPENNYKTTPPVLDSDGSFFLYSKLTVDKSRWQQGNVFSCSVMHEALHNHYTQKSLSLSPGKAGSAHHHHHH
Method in brief: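 Human CD3ε/γ-Fc fusion is amine-coupled to the chip at pH 4.5. Anti-DLL3/CD3 bispecifics are injected as analyte in PBS-T-EDTA at 30 μl/min, with 600 s association and 1800 s dissociation. Binding kinetics are measured by SPR.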

[3] = target: T1, human DLL3 (endogenous, on SCLC cell …); assay: flow cytometry titration on SHP77 cells, PE anti-human secondary, x-fold over background
From the text: Cells (T cells or human SCLC cells) were stained with increasing concentrations of two-step purified DLL3/CD3 binding proteins with increasing concentrations in FACS buffer (PBS/0.5% BSA/0.05% sodium azide). Bound molecules were detected with PE-conjugated anti-human secondary antibody (Sigma-Aldrich, #P8047).

[4] = target: T2, EGF2+3; assay: flow cytometry on HEK293 cells expressing the DLL3 subdomain construct, PE anti-human secondary, control: secondary antibody only
Method in brief: (§1)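 Binders tested on HEK293 cells displaying the DLL3 subdomain construct; bound molecules detected by flow cytometry using PE-conjugated anti-human secondary antibody. Negative control: cells with secondary antibody only.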

[5] = target: T3, EGF3+4; assay: as above
Method in brief: as §1

[6] = target: T4, EGF4+5; assay: as above
Method in brief: as §1

[7] = target: T5, EGF5+6; assay: as above
Method in brief: as §1

[8] = target: T6, EGF6+MEMBRANE PROXIMAL PEPTIDE; assay: as above
Method in brief: as §1

| Binder | Non-specific binding (RU) [1] [RU] | Kd [2] [nM] | EC50 (read off the curve) [3] [nM] | binding result [4] | binding result [5] | binding result [6] | binding result [7] | binding result [8] |
| --- | --- | --- | --- | --- | --- | --- | --- | --- |
| B1 | 0 | 3 | ~1 | no binding (tested: 1.6 nM) | no binding (tested: 1.6 nM) | no binding (tested: 1.6 nM) | no binding (tested: 1.6 nM) | no binding (tested: 1.6 nM) |
| B2 | 0 | 2 | ~2 | no binding (tested: 1.6 nM) | no binding (tested: 1.6 nM) | no binding (tested: 1.6 nM) | no binding (tested: 1.6 nM) | no binding (tested: 1.6 nM) |
| B3 | 37 | 2 | ~0.3 | no binding (tested: 1.6 nM) |  |  | no binding (tested: 1.6 nM) | no binding (tested: 1.6 nM) |
